Experimental findings from the nanobody polyreactivity screen of Harvey et al. (2022) are described below.

This series in a line: yeast display, Sf9 membrane polyspecificity reagent, FACS + sequencing; frameworks hold sequencing errors. Put shortly:
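Genes from sorted yeast were amplified by colony PCR, read by MiSeq 2 × 250 sequencing and filtered on CDR length. These cells carried a synthetic nanobody library in Saccharomyces cerevisiae BJ5465 and were sorted by FACS into low and high (top ~1%) gates on anti-HA and streptavidin fluorescence. Polyreactivity is labelled according to the gate of origin.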
With “QVQLVESGGGLVQAGGSLRLSCAASGFTFKINGKGWYRQAPGKEREFVATIRTSTGRTYYADSVKGRFTISRDNAKNTVYLQMNSLKPEDTAVYYCATDYLFERLLQEMDYWGQGTQVTVSS”, the “polyreactivity (PSR sort gate)” value is “high polyreactivity”.

With “QVQLVESGGGLVQAGGSLRLSCAASGFTFKKYAMGWYRQAPGKERELVASITWSGGSTSYADSVKGRFTISRDNAKNTVYLQMNSRKPEDTAVYYCDAATFVYRLRYNRFDYWGQGTQVTVSS”, the “polyreactivity (PSR sort gate)” value is given as “high polyreactivity”.

For “QVQLVESGGGLVQAGGSLRLSCAASGFTFKRNAMGWYRQAPGKERELVAAITKSGGSTYYADSVKGRFTISRDNAKNTVYLQMNSLQPEDTAVYYCNTVHYYRDYDYWGQGTQVTVSS”, the “polyreactivity (PSR sort gate)” value is “high polyreactivity”.

Regarding “QVQLVESGGGLVQAGGSLRLSCAASGFTFKRYAMGWYRQAPGKEREFVAAITRGGGSTYYTDSVKGRFTISRDNAKNTVYLQMNSLKPEYTAVYYCAAVLYYYWRGYGPRSNRYDYWGQGTQVTVSS”, the “polyreactivity (PSR sort gate)” value was “high polyreactivity”.

Take “QVQLVESGGGLVQAGGSLRLSCAASGFTFKRYAMGWYRQAPGKERELVAAISWSGGSTYYADSVKGRFTISRDNAKNTVYLQMNSLKPEDTAVYYCNAVCRFSTRREYWGQGTQVTVSS”: the “polyreactivity (PSR sort gate)” value is given as “high polyreactivity”.

As to “QVQLVESGGGLVQAGGSLRLSCAASGFTFKSYAMGWYRQAPGKERELVAGISRNGGRTYYADSVKGRFTISRDNAKNTVYLQMNSLKPEDTAVYYCAARIYTSRDNYWGQGTQVTVSS”, the “polyreactivity (PSR sort gate)” value is reported as “high polyreactivity”.

With “QVQLVESGGGLVQAGGSLRLSCAASGFTFKSYTMGSYRQAPGKERELVAAISRRDGSTYYADSVKGRFTISRDNAKNTVYLQMNSLKPEDTAVYYCAKVWYGDRNIDRYDYWGQGTQVTVSS”, the “polyreactivity (PSR sort gate)” value is “high polyreactivity”.

With “QVQLVESGGGLVQAGGSLRLSCAASGFTFKYYAMGWYRQAPGKERELVAAISSGATTYYADSVKGRFTISRDNAKNTVYLQMNSLKPEDTAVYYCNANRFRRYDWGQGTLVTVSS”, the “polyreactivity (PSR sort gate)” value is “high polyreactivity”.

As to “QVQLVESGGGLVQAGGSLRLSCAASGFTFKYYAMGWYRQAPGKERELVADITRSGGSTYYADSVKGRFTISRDTAKITVYLQMNSLKPEDTAVYYCAVDPVRYPYSYDYWGQGTQVTVSS”, the “polyreactivity (PSR sort gate)” value was “high polyreactivity”.

Regarding “QVQLVESGGGLVQAGGSLRLSCAASGFTFKYYAMGWYRQAPRKERELVAAITSRGGSTYYADSVKGRFTISRDNAKNTVYLQMNSLKPEDTAVYYCAARFRKIGVAFDYWGQGTQVTVSS”, the “polyreactivity (PSR sort gate)” value is on record as “high polyreactivity”.

“QVQLVESGGGLVQAGGSLRLSCAASGFTFKYYDMGWYRQAPGKERELVAAIDTSGGNTYYADSVKGRFTISRDNAKNTVYLQMNSLKPEDTAVYYCAATVPYYHDDYWGQGTQVTVSS”: the “polyreactivity (PSR sort gate)” value is on record as “low polyreactivity”.

In the case of “QVQLVESGGGLVQAGGSLRLSCAASGFTFKYYVMGSYRQAPGKERFVAAITGSGASTYYADSVKGRFTISRDNAKNTVFLQMNSLKPEETAVYYCNADYYAGRYRYDYWGQGTQVTVSS”, the “polyreactivity (PSR sort gate)” value is on record as “high polyreactivity”.

As for “QVQLVESGGGLVQAGGSLRLSCAASGFTFLAYAMGWYRQAPGQERELVAAINSSDGTTHYADSVKGRFTISRDTAKNTVYLQMNSLKPEDTAVYYCAVSQVRTGEGYHYWGQGTQVTVSS”, the “polyreactivity (PSR sort gate)” value is reported as “low polyreactivity”.

“QVQLVESGGGLVQAGGSLRLSCAASGFTFLRYAMGWYRQAPGKERELVAAISTSGGRTYYADSVKGRFTISRDNAKNTVYLQMNSLKPEDTAVYYCNAAGGYRTSPSDYWGQGTQVTVSS”: the “polyreactivity (PSR sort gate)” value was “high polyreactivity”.

“QVQLVESGGGLVQAGGSLRLSCAASGFTFLSNAMGWYRQAPVKERELVAGISWDAGSTNYADSVKGRVTISRDNAKNTVYLQMNSLKPEDTAVYYCNADDSTGSRFYIEYDYWGQGTQVTVSS”: the “polyreactivity (PSR sort gate)” value is listed as “low polyreactivity”.

Take “QVQLVESGGGLVQAGGSLRLSCAASGFTFLVYAMGWYRQAPGKERELVAAITWSGDSTYYADSVKGRFTISRDNAKNTVYLQMNSLKPEDTAVYYCAAAYRYGTLYYYWGQGTQVTVSS”: the “polyreactivity (PSR sort gate)” value was “low polyreactivity”.

In the case of “QVQLVESGGGLVQAGGSLRLSCAASGFTFLWNAMGWYRQAPGKERELVAAINGNSGNTYYADSVKGRFTISRDNAKNTVYLQMNSLKPEDTAVYYCARRGGVRGYYGGRRSKMDYWGQGTQVTVSS”, the “polyreactivity (PSR sort gate)” value was “low polyreactivity”.

As to “QVQLVESGGGLVQAGGSLRLSCAASGFTFLYNAMGWSRQAPGKERELVASINSGGSTNYADSVKGRFTISRDNAKNTVYLQMNSLKPEDTAVYYFNAKRHVRKGDYWGQGTQVTVSS”, the “polyreactivity (PSR sort gate)” value is recorded as “low polyreactivity”.

For the sequence “QVQLVESGGGLVQAGGSLRLSCAASGFTFLYNARGWYIQAPGKERELVASINSGGSTNYADSVKGRFTISRDNAKNTVYLQKNSLKPEDTAVYYWNAKRHVRKGDYWGQGTQVTVSS”, the “polyreactivity (PSR sort gate)” value is given as “low polyreactivity”.

In the case of “QVQLVESGGGLVQAGGSLRLSCAASGFTFNANAMGWYRQAPGKERELVSVITRSGGRTYYADSVKGGFTISRDTAKNTVYLQMNSLKPEDSAVYYCATEGPSRVYQGTDSASDYWGQGTQVTVSS”, the “polyreactivity (PSR sort gate)” value is “high polyreactivity”.

“QVQLVESGGGLVQAGGSLRLSCAASGFTFNAYAMGWYRQAPGKERELVAAINVSGGITYYADSVKGRFTISRDNAKNTVYLQMNSLKPEDTAVYYCARDSYYSQVYRRGYSVPWRLDYWGQGTQVTVSS”: the “polyreactivity (PSR sort gate)” value was “low polyreactivity”.

Take “QVQLVESGGGLVQAGGSLRLSCAASGFTFNDYAMGWYRQAPGKERELVAAIDWSGGRTYYADSVKGRFTISRDNAKNTVYLQLNSLKPEDTAVDYCAVEDLSHAYVQHYRYGYGYWGQGTQVTVSS”: the “polyreactivity (PSR sort gate)” value is recorded as “low polyreactivity”.

As to “QVQLVESGGGLVQAGGSLRLSCAASGFTFNFYAMGWYRQAPGKESELVASITSSGARTYYADSVKGRFTISSDNPKNTVYLQMNSLKPEDTAVYYCAARVYRYSASRAYDYWGQGTQVTVSS”, the “polyreactivity (PSR sort gate)” value is listed as “high polyreactivity”.

Regarding “QVQLVESGGGLVQAGGSLRLSCAASGFTFNFYTMGWYRQAPGKERELVAAITWSGGSTYYADSVKGRFTISRDNAKNTVYLQLNSLKPEDTAVYYCAATQQSRDRRFNYWGQGTQVTVSS”, the “polyreactivity (PSR sort gate)” value is recorded as “high polyreactivity”.

In the case of “QVQLVESGGGLVQAGGSLRLSCAASGFTFNGYAMGWYRQAPGHERELVAGITRRGGITYYADSVKGRFTISRDNAKNTVYLPMNSLKPEDTAVYYCARDYIGHALIHHASLYYYWGQGTQVTVSS”, the “polyreactivity (PSR sort gate)” value is given as “high polyreactivity”.

Turning to “QVQLVESGGGLVQAGGSLRLSCAASGFTFNIKTKGSDRQAPGKDRELVAAITSGGNSSYADSVKGRLTISRDNAKNTVYLQMNRVKPEDTAVYYCATEDFRTDTGMYYWGQGTQVTVSS”, the “polyreactivity (PSR sort gate)” value is given as “low polyreactivity”.

With “QVQLVESGGGLVQAGGSLRLSCAASGFTFNRYAMGWYRQAPGKERELVAAIRSRGGSTYYADSVKGRFTISRDNAKNTVYLQMNSLKPEDTAVYYCAARSFQFYRFDYWGQGTQVTVSS”, the “polyreactivity (PSR sort gate)” value is “high polyreactivity”.

In the case of “QVQLVESGGGLVQAGGSLRLSCAASGFTFNRYAMGWYRQAPGKERELVAAISRGGGSTYYADSVKGRFTISRDNAKNTVYLQMNSLKPEDTAVYYCAADTRVRTCRYGFWGQGTQVNVSS”, the “polyreactivity (PSR sort gate)” value is “high polyreactivity”.

In the case of “QVQLVESGGGLVQAGGSLRLSCAASGFTFNRYVMGWYRQAPGKERELVAAISGGGARTYYADSVKGRFTISRDNAKNTVYLQMNSLKPEDTAVYYCNARYKSHSVSDYYYWGQGTQVTVSS”, the “polyreactivity (PSR sort gate)” value is listed as “high polyreactivity”.

“QVQLVESGGGLVQAGGSLRLSCAASGFTFNYYAMGWYRQAPGKERELVAAIDSGGNTYYADSVKGRFTISRDNAKNTVYLQMNRLKPEDTAVYYCAAYRDYQYDYWGQGTQVTVSS”: the “polyreactivity (PSR sort gate)” value is listed as “low polyreactivity”.

“QVQLVESGGGLVQAGGSLRLSCAASGFTFNYYAMGWYRQAPGKERELVAGITRSGVSTNYADSVKGRFTISRDNAKNTVYLQMNSLKPEDTAGYYSAREEGRRYRGWPYVFAPQHDYWGQGTQVTVSS”: the “polyreactivity (PSR sort gate)” value was “high polyreactivity”.

For “QVQLVESGGGLVQAGGSLRLSCAASGFTFPEYAMGWYRQAPGKERELVAAISSGDSTNYADSVKGRLTISRDNAKNTVYLQMNILKPEDTAVDYCAADYYDYYYEYEYWGQGTQVTVSS”, the “polyreactivity (PSR sort gate)” value is “low polyreactivity”.

With “QVQLVESGGGLVQAGGSLRLSCAASGFTFPGNAMGWYRHPPGKERELVAAISSTDRTTNADSVKGRFTISRDNAKNTGYLQMNSLKPEDTAVYYCYTATRRRPRGYWGQGTQVTVSS”, the “polyreactivity (PSR sort gate)” value is given as “high polyreactivity”.

For “QVQLVESGGGLVQAGGSLRLSCAASGFTFPGNAMGWYRQAPGKEREFVAAITRSSGSTSYADSVKGRFTISRDNAKNTVYLQMNSLKPEDTAVYRDYWGQGTQVTVSS”, the “polyreactivity (PSR sort gate)” value is reported as “low polyreactivity”.

In the case of “QVQLVESGGGLVQAGGSLRLSCAASGFTFPKYAMGWYRQAPGKERELVAAITWSGGSTRYADSVKGRFTISRDNAKNTVYLQMNSLKPEDTAVYYCAADRRSGYSRYKYGRGDYWGQGTQVTVSS”, the “polyreactivity (PSR sort gate)” value is reported as “high polyreactivity”.

In the case of “QVQLVESGGGLVQAGGSLRLSCAASGFTFPLNAMGWYRQAPGKERELVAAISGSGGSTYYADSVKGRFTISRDNAKNTVYLQMNSLKPEDTAVYYCAAGIYYWGQGTQVTVSS”, the “polyreactivity (PSR sort gate)” value was “low polyreactivity”.

On to “QVQLVESGGGLVQAGGSLRLSCAASGFTFPLNARGWYRQAPGKERELVAAITNGGTTYYADSVKGRFTISRDNAKNTVYLQMHSLKPEDTAVYYCAAYTYRYGSFKYGYWGQGTQVTVSS”, for which the “polyreactivity (PSR sort gate)” value is given as “low polyreactivity”.

On to “QVQLVESGGGLVQAGGSLRLSCAASGFTFPQYVMGGYRQAPGKERELVAAISSRGGRTYYADSVKGRFTISRDNAKNTVYLQMNSLIPEDTAVYYCAKGKRDSRAFDYWGQGTQVTVSS”, for which the “polyreactivity (PSR sort gate)” value is listed as “high polyreactivity”.

For “QVQLVESGGGLVQAGGSLRLSCAASGFTFPRNVMGWYRQAPGKERELVAAISRSGSRTSYADSVKGRFTISRDNAKNTVYLQMNSVKPEDTAVYYCATSSGVGGYAAYYYWGQGTQVTVSS”, the “polyreactivity (PSR sort gate)” value is reported as “high polyreactivity”.

For the sequence “QVQLVESGGGLVQAGGSLRLSCAASGFTFPRYAMGWYRQAPGKERELVAAISTSGDSTYYADSVKGRFTISRDNAKNTVYLQMNSLKPEDTAVYYCAARVVRGRYGYWGQGTQVTVSS”, the “polyreactivity (PSR sort gate)” value is “high polyreactivity”.

Consider “QVQLVESGGGLVQAGGSLRLSCAASGFTFPSYAMGWYRQAPGKDREFVAGITKGGGNTYYADSVKGRFTISRDNAKNNVYLQMNSLKPEDTAVYYCAKCPLPRAGVKFDYWGQGTQVTVSS”, for which the “polyreactivity (PSR sort gate)” value is listed as “low polyreactivity”.
